The values below come from US20240034793A1 (Bristol-Myers Squibb, published 2024).

For test [1], the target named is human PD-L1 (hPD-L1), Programmed Death Ligand-1, cell surface expressed (human) (UniProt Q9NZQ7). Kind of test: IHC histoscore (0-300), FFPE RCC sample 1164619B.
The target is the same in test [2]. Briefly: IHC histoscore (0-300), FFPE NSCLC sample 1080993B.
For test [3] the target is unchanged. Kind of test: IHC histoscore (0-300), FFPE NSCLC sample 1080754B.
Test [4] shares this target. Briefly: IHC histoscore (0-300), FFPE NSCLC sample 1080766B.
Test [5] shares this target. Kind of test: IHC histoscore (0-300), FFPE Mel sample 1168657B.
For test [6] the target is unchanged. Briefly: IHC histoscore (0-300), FFPE Mel sample T030668.
Test [7] shares this target. Briefly: IHC histoscore (0-300), FFPE Mel sample T980744.
Test [8] has the same target. Briefly: IHC histoscore (0-300), FFPE NSCLC sample 1080790.
Test [9] shares this target. Kind of test: IHC histoscore (0-300), FFPE RCC sample 1167809B.
Test [10] deals with T1, human PD-L1 (hPD-L1), Programmed Death Ligand-1, cell surface expressed (human, UniProt Q9NZQ7 19-290).
T1 construct: whole, on cells; In the IHC assays the cells and tissues were formalin-fixed and paraffin-embedded (FFPE); also called membranous PD-L1
Kind of test: competition flow cytometry on ES-2 cells: unlabelled mAb titrated, then biotin-12A4 at 0.4 ug/ml, streptavidin-PE. As to the method:
Anti-PD-L1 HuMAbs 5F8, 12B7, 3G10, 1B12, 13G4, 10H10, 10A5 and 12A4, and a human IgG1 (huIgG1) isotype control Ab were serially diluted from 10 μg/ml and incubated with hPD-L1-expressing ES-2 ovarian carcinoma cells for 20 minutes at 4° C. Without washing, biotinylated-12A4 Ab was added to a final concentration of 0.4 μg/ml for an additional 20 minutes at 4° C.

Sequence of human PD-L1 (hPD-L1), Programmed Death Ligand-1, cell surface expressed (human) (Q9NZQ7 19-290): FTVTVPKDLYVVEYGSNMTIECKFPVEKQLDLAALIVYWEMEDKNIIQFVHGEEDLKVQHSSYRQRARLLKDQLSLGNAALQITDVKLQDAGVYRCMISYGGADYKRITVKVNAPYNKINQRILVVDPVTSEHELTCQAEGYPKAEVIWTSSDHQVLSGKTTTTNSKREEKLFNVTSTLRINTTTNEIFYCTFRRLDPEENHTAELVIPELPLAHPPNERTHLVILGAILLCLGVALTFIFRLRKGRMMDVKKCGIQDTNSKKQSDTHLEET
T1 sequence (Q9NZQ7 19-290): as above

With “murine anti-human PD-L1 mAb 5H1 (Dong et al., 2002) (antibody)”, the Histoscore Average in [1] came out at 4; in test [2] it was 12; in test [3] it was 245; in test [4], 103; in test [5] it was 0; in test [6], 98. Further, the Histoscore Average is 98 in test [7], 40 in test [8] and 108 in test [9].

B1: anti-PD-L1 HuMAb 3G10 (antibody, V domains shown)
VH: QVQLVQSGAEVKKPGASVKVSCKASGYTFTDYGFSWVRQAPGQGLEWMGWITAYNGNTNYAQKLQGRVTMTTDTSTSTVYMELRSLRSDDTAVYYCARDYFYGMDVWGQGTTVTVSS
VL: EIVLTQSPATLSLSPGERATLSCRASQSVSSYLVWYQQKPGQAPRLLIYDASNRATGIPARFSGSGSGTDFTLTISSLEPEDFAVYYCQQRSNWPRTFGQGTKVEIK
notes: Human mAb; used unconjugated and FITC-conjugated
With B1, in [10], the “IC50 (read off the curve)” value is ~1 nM.
